These results are taken from article PMC10699770 (Science Advances, 2023).

The assay addresses full-length NAIP5 with an N-terminal Flag tag (mouse, UniProt Q9R016 1-1403). The experiment in a line: cryo-EM structure.

Chain of full-length NAIP5 with an N-terminal Flag tag (Q9R016 whole entry): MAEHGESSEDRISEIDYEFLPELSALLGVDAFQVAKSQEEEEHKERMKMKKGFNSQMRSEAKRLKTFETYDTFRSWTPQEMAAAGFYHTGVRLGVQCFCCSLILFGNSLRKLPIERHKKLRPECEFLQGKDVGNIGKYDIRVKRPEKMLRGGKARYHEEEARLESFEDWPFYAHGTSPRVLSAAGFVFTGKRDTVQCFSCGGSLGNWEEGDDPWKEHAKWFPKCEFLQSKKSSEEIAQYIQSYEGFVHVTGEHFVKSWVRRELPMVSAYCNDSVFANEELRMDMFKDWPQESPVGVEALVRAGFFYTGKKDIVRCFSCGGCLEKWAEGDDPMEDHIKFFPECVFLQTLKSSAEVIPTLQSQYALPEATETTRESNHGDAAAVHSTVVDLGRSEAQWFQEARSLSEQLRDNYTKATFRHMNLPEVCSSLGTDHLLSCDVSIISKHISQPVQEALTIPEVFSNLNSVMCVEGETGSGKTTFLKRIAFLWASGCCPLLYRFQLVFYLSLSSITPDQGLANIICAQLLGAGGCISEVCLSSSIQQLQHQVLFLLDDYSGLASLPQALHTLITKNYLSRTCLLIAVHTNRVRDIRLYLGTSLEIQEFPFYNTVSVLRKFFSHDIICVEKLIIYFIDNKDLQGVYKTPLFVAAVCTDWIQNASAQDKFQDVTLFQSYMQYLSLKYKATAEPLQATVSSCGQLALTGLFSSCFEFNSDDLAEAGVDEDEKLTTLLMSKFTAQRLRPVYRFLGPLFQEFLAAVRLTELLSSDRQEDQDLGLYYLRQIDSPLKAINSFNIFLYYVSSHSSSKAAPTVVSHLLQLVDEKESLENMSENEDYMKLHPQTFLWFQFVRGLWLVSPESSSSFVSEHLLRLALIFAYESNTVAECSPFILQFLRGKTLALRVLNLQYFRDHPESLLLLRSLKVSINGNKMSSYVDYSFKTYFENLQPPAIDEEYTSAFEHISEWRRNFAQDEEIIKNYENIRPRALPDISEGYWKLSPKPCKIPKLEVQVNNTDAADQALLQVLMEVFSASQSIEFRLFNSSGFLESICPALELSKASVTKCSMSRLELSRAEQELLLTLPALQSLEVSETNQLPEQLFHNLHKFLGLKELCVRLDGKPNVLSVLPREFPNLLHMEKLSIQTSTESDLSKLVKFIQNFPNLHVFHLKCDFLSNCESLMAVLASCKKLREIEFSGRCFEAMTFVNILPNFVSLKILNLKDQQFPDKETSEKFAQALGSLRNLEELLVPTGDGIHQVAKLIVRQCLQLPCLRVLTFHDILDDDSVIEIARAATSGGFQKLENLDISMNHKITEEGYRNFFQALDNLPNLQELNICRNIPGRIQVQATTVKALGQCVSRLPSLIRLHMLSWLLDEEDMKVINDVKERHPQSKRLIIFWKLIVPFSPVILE

B1: full-length S. typhimurium flagellin FliC with N-terminal His tag (natural protein)
chain: MAQVINTNSLSLLTQNNLNKSQSALGTAIERLSSGLRINSAKDDAAGQAIANRFTANIKGLTQASRNANDGISIAQTTEGALNEINNNLQRVRELAVQSANSTNSQSDLDSIQAEITQRLNEIDRVSGQTQFNGVKVLAQDNTLTIQVGANDGETIDIDLKQINSQTLGLDTLNVQQKYKVSDTAATVTGYADTTIALDNSTFKASATGLGGTDQKIDGDLKFDDTTGKYYAKVTVTGGTGKDGYYEVSVDKTNGEVTLAGGATSPLTGGLPATATEDVKNVQVANADLTEAKAALTAAGVTGTASVVKMSYTDNNGKTIDGGLAVKVGDDYYSATQNKDGSISINTTKYTADDGTSKTALNKLGGADGKTEVVSIGGKTYAASKAEGHNFKAQPDLAEAAATTTENPLQKIDAALAQVDTLRSDLGAVQNRFNSAITNLGNTVNNLTSARSRIEDSDYATEVSNMSRAQILQQAGTSVLAQANQVPQNVLSLLR
As for B1, the binding result was “binds”.
